Paper PMC9905677

Tests used:
[1] = molecular target: soluble form of human FcγRIIIb (NA2 form) composed of the extracellular domains (human) (UniProt O75015); assay: NMR titration; 1H-15N HSQC peak intensity attenuation of the 15N-labeled protein (rituximab-Fc 120 μM, rituximab-Fab 240 μM, sFcγRIIIb 120 μM) on adding serum polyclonal IgG 120 μM, its Fab 240 μM or HSA 600 μM; 5 mM sodium phosphate, 50 mM NaCl, pH 7.4, 37°C
rituximab-Fab (human) = assay: as above
[2] = molecular target: extracellular region of human FcγRIIIa (158V allele), bis-glycosylated (human) (UniProt P08637)

UniProt O75015, sequence (O75015 17-200): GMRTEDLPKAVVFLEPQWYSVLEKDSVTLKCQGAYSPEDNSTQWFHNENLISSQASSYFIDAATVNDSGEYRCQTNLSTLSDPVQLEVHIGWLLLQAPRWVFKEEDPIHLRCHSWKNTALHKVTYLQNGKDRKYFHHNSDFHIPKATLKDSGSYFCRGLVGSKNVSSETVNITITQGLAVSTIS

Row | average level of HSQC peak intensity attenuation (Io-Ip)/Io [1] | average level of HSQC peak intensity attenuation (Io-Ip)/Io (rituximab-Fab (human)) | EC50 of the ADCC reporter assay (Jurkat/FcγRIIIa/NFAT-Luc effector cells, luciferase) [2] [µg/mL] | Substance
1 | 0.41 | 0.6 |  | human serum albumin (from UniProt P02768 25-609) (natural protein)
2 |  |  | 0.02 | rituximab (antibody)
